Key:
human Claudin-4 (human) [1] = target: human Claudin-4 (human) (UniProt O14493); test: FACS, Claudin-4-CHO-K1 cells, serial dilution of the antibody, MFI
human Claudin-4 (human) [2] = target: human Claudin-4 (human) (UniProt O14493); test: FACS, Claudin-4-CHO-K1 cells
human Claudin-3 (human) [3] = target: human Claudin-3 (human) (UniProt O15551); test: FACS, Claudin-3-CHO-K1 cells (data not shown in the figures)
human Claudin-4 (human) [4] = target: human Claudin-4 (human) (UniProt O14493); test: FACS, MCF7 cells (endogenous CLDN3 and CLDN4)
human Claudin-3 (human) [5] = target: human Claudin-3 (human) (UniProt O15551); test: FACS, Claudin-3-CHO-K1 cells, 5 µg/ml
human Claudin-3 (human) [6] = target: human Claudin-3 (human) (UniProt O15551); test: FACS, Claudin-3-CHO-K1 cells, serial dilution of the antibody, MFI
human Claudin-3 (human) [7] = target: human Claudin-3 (human) (UniProt O15551); test: FACS, MCF7 cells (endogenous CLDN3 and CLDN4)

Sequence of human Claudin-3 (human) (O15551 whole entry): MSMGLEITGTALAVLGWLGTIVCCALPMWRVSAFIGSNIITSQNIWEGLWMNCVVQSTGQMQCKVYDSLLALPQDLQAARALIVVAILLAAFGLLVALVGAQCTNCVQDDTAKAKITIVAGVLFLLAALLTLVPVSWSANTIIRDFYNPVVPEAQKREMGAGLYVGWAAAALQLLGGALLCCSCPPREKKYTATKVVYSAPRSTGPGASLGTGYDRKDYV

EC50 (read off the curve) (human Claudin-4 (human) [1])	fold MFI over isotype control (human Claudin-4 (human) [2])	fold MFI over isotype control (human Claudin-3 (human) [3])	fold MFI over isotype control (human Claudin-4 (human) [4])	fold MFI over isotype control (human Claudin-3 (human) [5])	EC50 (read off the curve) (human Claudin-3 (human) [6])	fold MFI over isotype control (human Claudin-3 (human) [7])	Substance
2 nM	33 fold	9.7 fold	15 fold				anti-Claudin-4 antibody MAB4219 (R&D)
				61 fold	0.6 nM	20 fold	anti-claudin 3 antibody MAB4620 (R&D)

— patent US20250277026A1
